The DeepSol protein solubility set

assay: soluble on expression in E. coli; label from the status in PepcDB or PDB records

Q: For “MKDNRITVTDIPNTNLKKITLKNDFLEVVLLNYGARLHQLLMPNKNNHWENILLSYDSYQDVLKDQSFFGATVGPVAGRIRNGHWQNGILEQNSDGHHIHGGSKGWSFQYWTVEPFEKKDIIGVAFHLTDTISGYPGPIEATITYQLEDNHLRMISTGRSKQETLFNPTNHAYFNLSGDGKLDILSHLLSLNCQGMLELDDNKLPTGRILPASELSIRFNELTPIETILQRYPTGLDDVFSLVGSDLRQPQLCLQEPTSGRKMTIATTNQSMVLFSTTGFEAPFSINGQAMHSNYGLAIEPQEYPDIVHHPQWGSILLPANKKQTYQTVYQFNLL”, which “soluble on expression in E. coli” value is on record?
A: not soluble

Q: Which “soluble on expression in E. coli” value does the source give for “MKDNRYSPDWPQLALQKKQAVGWVCERCGVQCLKPGEGKGLLKEERYRLRMAVHHCDYDPSNNSPSNLMALCSPCHLHYHQRQRGNVTPGQLSLGFVYRSCLVCAQQLEHHHHHH” here?
A: not soluble

Q: For “MKDSPFYQHYDLDLKDKPLGEGSFSICRKCVHKKSNQAFAVKIISKRMEANTQKEITALKLCEGHPNIVKLHEVFHDQLHTFLVMELLNGGELFERIKKKKHFSETEASYIMRKLVSAVSHMHDVGVVHRDLKPENLLFTDENDNLEIKIIDFGFARLKPPDNQPLKTPCFTLHYAAPELLNQNGYDESCDLWSLGVILYTMLSGQVPFQSHDRSLTCTSAVEIMKKIKKGDFSFEGEAWKNVSQEAKDLIQGLLTVDPNKRLKMSGLRYNEWLQDGSQLSSNPLMTPDILGSSGAAVHTCVKATFHAFNKYKREGFCLQNVDKA”, which “soluble on expression in E. coli” value is on record?
A: soluble

Q: Which “soluble on expression in E. coli” value does the source give for “MKDVTPARADYPWDGERDVIVIGSGCAGLSAALLAAKKSLDVVLCEKSSQVGGTTASAGGVMWIPNSREARAAGVDDSSEQVRVYLRALMGAYYRADLVDPYLKSAPLAAQAIQEDTQVRLKLMPAMSDYHASLPGGKAGGRSLEPERFDGRRLGADFELVRAPIKRLMLLGGLYIDKRRIDEFLNPFGSFRNFIGVIRTLARYAIDRTRFSRGTDIGAGNAFVASALLSLRERGVPIWLNSPMVSLVRNPQGGVAGVAICRDGKLQRIRARKGVILAAGGFPRNAALLEELAGGFPHDQSVGYEGNVGDTLQAARQAGAAIDADLASPCWWTPTSRNKEADGSMSTVLYGYLDRSRPGMIAVNAAGKRFVNDSDSYHDIVYAMFKDGVTPDSRFYLICDRRFVWKRGLGNLIKPYCLSLGRYVRSGYISTGRSIRELAAAIGIDPDALEVTVTRHNGFCETGVDLDFGKGGNPYNRMFGDPRVKPNPNLLAIRHAPFFALRIYPGTLGTILGLKATADAQVVGQDGEAIPGLYACGNDMSSVFRGFYPGAGATLGPGLVFAYRAIEHLARSSGGSAAQSALEHHHHHH” here?
A: not soluble

Q: Which “soluble on expression in E. coli” value does the source give for “MKEESRAKTGRKPKSDPADYKYSFRLNAGENMRFEKLVTESEAKDKTRFIKKAIFGGTIKVVKIDKATMDYYIRLTEFHRQFQTIGNNYNQVVRAIRSNFGEKRAMSLLYKLEKMTLELMLLTKKVIALTEEYQKKWLQK” here?
A: not soluble

Q: Which “soluble on expression in E. coli” value does the source give for “MKEIWLLAESESWDEAKEMLKDAIEIGFDGALVRRDFLERAEKLGRMKIVPIEDAVVKISSAEDQERALQREVVVLKFEDWKVIPLENIVAMKKSGKVIAAVDTIEDAKLALTTLERGADGIAVSGDRETLRKFYEVVKEEGERVELVRARVKEIRPLGVGERVCIDTVTLMTPGEGMLVGNQASFMFLVASESEESEYVASRPFRVNAGSVNAYLKVGDKTRYLAELKAGDEVEVVKFDGAVRKSYVGRVKIERRPLILIRAEVDGVEGSVILQNAETIKLVAPDGKHVSVAELKPGDEILVWLGKKARHFGVEVDEFIVER” here?
A: not soluble

Q: With “MKEKISKKEYNALIRKTGEKHFDGEKEEYGDGTVGLWTYELRKYKLKPPVKVKYVTQEEFGEFKDATNQRLTKIENALVAQGEQIRAQGEQLSQLIKVVLLQGEQIKSQGEQIKSLEHHHHHH” as the sequence, how does the “soluble on expression in E. coli” value read?
A: not soluble

Q: Which “soluble on expression in E. coli” value does the source give for “MKEKVSMVSLGCPKNLVDAEVMLGCLAKDQYEITTDEHEADIIIVNTCSFIGDAKKESIDTILDLADRKHDGRCKLLVVTGCLPQRYQEELATELPEVDIFVGTADYPRIAEIIAEKRGVAEQLRYISDPNYIFDESLPRLKSSPAYTAYLKIAEGCSNCCSYCVIPSLRGALRSRPLDNLLMEARTLVATGTREINLIAQDITAWGRDLPGSPTLEELVRELAKIVGLRWIRLLYAYPDGITDGLIEIIKTEPKVCKYLDIPIQHISDPVLKRMNRRSTEPQIRALIAKIRAEIPEIALRTSLIVGFPGETEEDFRTLLHYVEETQFDRLGVFCYSREEGTPAAGMEDQVSERVKRDRYKKLMKVQARLSFKRNRRLIDTEEEVIVEGYSDETDLLLKGRSSRQAPDIDGQVYITAGNANVGDIVRLRITDSSDYDLIGEIVEELEHHHHHH” here?
A: soluble

Q: Which “soluble on expression in E. coli” value does the source give for “MKERILQEIKTRVNRKSWELWFSSFDVKSIEGNKVVFSVGNLFIKEWLEKKYYSVLSKAVKVVLGNDATFEITYEAFEPHSSYSEPLVKKRAVLLTPLNPDYTFENFVVGPGNSFAYHAALEVAKHPGRYNPLFIYGGVGLGKTHLLQSIGNYVVQNEPDLRVMYITSEKFLNDLVDSMKEGKLNEFREKYRKKVDILLIDDVQFLIGKTGVQTELFHTFNELHDSGKQIVICSDREPQKLSEFQDRLVSRFQMGLVAKLEPPDEETRKSIARKMLEIEHGELPEEVLNFVAENVDDNLRRLRGAIIKLLVYKETTGKEVDLKEAILLLKDFIKPNRVKAMDPIDELIEIVAKVTGVPREEILSNSRNVKALTARRIGMYVAKNYLKSSLRTIAEKFNRSHPVVVDSVKKVKDSLLKGNKQLKALIDEVIGEISRRALSGLEHHHHHH” here?
A: soluble

Q: With “MKEYKRPDMYDKLLPMERIHIEVFEPFNGEAIEGKYSYVLLCRDYRSSFMWLLPLKSTKFKHLIPVVSSLFLTFARVPIFVTSSTLDKDDLYDICEEIASKYGLRIGLGLKSSARFHTGGILCIQYALNSYKKECLADWGKCLRYGPYRFNRRRNKRTKRKPVQVLLSEVPGHNAKFETKRERVIENTYSRNMFKMAGGKGLIYLEDVNTFALANEADNSCNNNGILHNNNIGNDNFEEEVQKQFDLTEKNYIDEYDDLAHDSSEGEFEPNTLTPEEKPPHNVDEDRIESTGVAAPMQGTEEPEKGDQKESDGASQVDQSVEITRPETSYYQTLESPSTKRQKLDQQGNGDQTRDFGTSMEL” as the sequence, how does the “soluble on expression in E. coli” value read?
A: not soluble

Q: Which “soluble on expression in E. coli” value does the source give for “MKFLKNVLEEGSKLEEFNELELSPEDKELLEYLQQTKAKITVVGCGGAGNNTITRLKMEGIEGAKTVAINTDAQQLIRTKADKKILIGKKLTRGLGAGGNPKIGEEAAKESAEEIKAAIQDSDMVFITCGLGGGTGTGSAPVVAEISKKIGALTVAVVTLPFVMEGKVRMKNAMEGLERLKQHTDTLVVIPNEKLFEIVPNMPLKLAFKVADEVLINAVKGLVELITKDGLINVDFADVKAVMNNGGLAMIGIGESDSEKRAKEAVSMALNSPLLDVDIDGATGALIHVMGPEDLTLEEAREVVATVSSRLDPNATIIWGATIDENLENTVRVLLVITGVQSRIEFTDTGLKRKKLELTGIPKIGSHHHHHH” here?
A: soluble

Q: Which “soluble on expression in E. coli” value does the source give for “MKFNIRGENIEVTPALKEYVEKKLSKLERYFDTFPEIKVNLKVYSDKQRVEVTIPFTDLLLRAEETNSDMYAAIDLVVDKLERQIRKHKTKVNRKLREKGSMKTNFILPEAVAVLDEVEEDELELVRTKRFDLKPMDVEEAILQMDMLGHNFFVFTNADTNETNVVYGRKDGKYGLIETKLEHHHHHH” here?
A: not soluble

Q: For “MKFNSMFSPIDIGPMKVPNRFVVSPMCNNYANTDGTLSDTSLAYYKERALGGFGLITFEATVVDVRAKGGANKACLYSDHQIASFKRVIDVCHDAGAKISVQLQHAGPEGNSKVSGYPLRAASAIASAAGRNTPEAISREELYELIELYGEAALRAKKAGADAVEVHCAHGYLVSSFLSARTNKRVDEFGGCFENRMRLPRLIIESIRKRVGHSIAILCRINSTDGVDGGLSVQDSATVAAYLEDCGLDGLHVSRSVHIRDEYMWAPTVLHAGFSSDLVTQIKRAVSIPVITVGRFTEPHYAELMVREGRADLVAFGRQSLADPETPNKAAAGKLDELLPCIACLQGCVANMYAGKPITCLVNPLLGRESEAYLPKTPSKKVVVVGGGVGGLYAGWMAGSRGHDVTVYEASDMIGGQMRLAAYPPGKGDLTNMVRSYIKKCEQFDVEIKTNTPVTLELIQEVAPDAVIIATGATPLVLPIPGIEDAGLIHAVDLLDGKEKCGQKVLVVGGGMVGSETAAFLGEAGHDVTVVELRDEVGADVISEHRKFLMHDFDEYKIKSVTNAKVTSFFEDGVTYSLADNKEQRIDGFDSVVLAMGSRAYNPLEEAIKAIVPETYVIGDAVRARRALDATKEALDAVLQL”, which “soluble on expression in E. coli” value is on record?
A: not soluble

Q: With “MKFPGKRKSKHYFPVNARDPLLQQFQPENETSAAWVVGIDQTLVDIEAKVDDEFIERYGLSAGHSLVIEDDVAEALYQELKQKNLITHQFAGGTIGNTMHNYSVLADDRSVLLGVMCSNIEIGSYAYRYLCNTSSRTDLNYLQGVDGPIGRCFTLIGESGERTFAISPGHMNQLRAESIPEDVIAGASALVLTSYLVRCKPGEPMPEATMKAIEYAKKYNVPVVLTLGTKFVIAENPQWWQQFLKDHVSILAMNEDEAEALTGESDPLLASDKALDWVDLVLCTAGPIGLYMAGFTEDEAKRKTQHPLLPGAIAEFNQYEFSRAMRHKDCQNPLRVYSHIAPYMGGPEKIMNTNGAGDGALAALLHDITANSYHRSNVPNSSKHKFTWLTYSSLAQVCKYANRVSYQVLNQHSPRLTRGLPEREDSLEESYWDR” as the sequence, how does the “soluble on expression in E. coli” value read?
A: not soluble

Q: Which “soluble on expression in E. coli” value does the source give for “MKFPGPLENQRLSFLLEKAITREAQMWKVNVRKMPSNQNVSPSQRDEVIQWLAKLKYQFNLYPETFALASSLLDRFLATVKAHPKYLSCIAISCFFLAAKTVEEDERIPVLKVLARDSFCGCSSSEILRMERIILDKLNWDLHTATPLDFLHIFHAIAVSTRPQLLFSLPKLSPSQHLAVLTKQLLHCMACNQLLQFRGSMLALAMVSLEMEKLIPDWLSLTIELLQKAQMDSSQLIHCRELVAHHLSTLQSSLPLNSVYVYRPLKHTLVTCDKGVFRLHPSSVPGPDFSKDNSKPEVPVRGTAAFYHHLPAASGCKQTSTKRKVEEMEVDDFYDGIKRLYNEDNVSENVGSVCGTDLSRQEGHASPCPPLQPVSVM” here?
A: not soluble

Q: With “MKFSVLMSLYIKENPQFLRECFESLVAQTRQADEIVLVFDGVVTPDLEFVVTEFETKLPLKLVKLPQNRGLGKALNEGLLHCDYDWVFRMDTDDICVPDRFEKQVAFIEQHPESIIFGGQIAEFGKNVNDIVAYRNVPTSAQEIIKFTQKRCPFNHMTVAYQKSAVINCGGYEDLQEDYYLWIKLVAQGLYMANLPDILVYARVGNGMVSRRRGVNQAKAEWRLFKLKYRLGIQGLLSGLFTFALRFGSRLLPTSLLKKLYQTFLRK” as the sequence, how does the “soluble on expression in E. coli” value read?
A: soluble

Q: With “MKFTETSLKLNPLTEITFFLTFGAKTMSNQWNSGIHDRKLKEEICEIGRRVYNKGFAAANDGNISIRVGENEVLCSPTMICKGFMKPDDICAVDLDGNQIAGTRKRTSEILLHLAIMKERPDVKAVVHCHPPHATAFAVAREPIPQCVLPEVEVFMGEVPMAPYETPGGQKFADTVVPFLKGGTNTIILTGHGTVTFGKSLEDAYWKTEILDAYCNILLLSKQLGRVTYFTENETRELLDLKKKLGFDDPRFHVEDCDLCGNSAFRDGYKEGIPQQKSFEPAPSYPGYLSKPSTQATPATNNGDSDQLIKAITDQVMSALGK” as the sequence, how does the “soluble on expression in E. coli” value read?
A: not soluble

Q: For “MKFYRRIEPIKAMTFDLDDTLYDNHPVIIRMESELLTWLQQTHPAVAHMEKADWLQVKKHVLQQSPDLKSDVTLWRLVQLKHAFLSVGYDEAQAQVAAEEGVQLALEWRSQFDVPQQSL”, which “soluble on expression in E. coli” value is on record?
A: not soluble

Q: For “MKGFCYRCGHEGELLDGLCKICYTHMNPLIEVDNEVHVEVCHMCGSYKRKLWQDPQKRETYEIMEEIAYFGVKDNLKKANKSIDVEIMPQEPRQLPGGKRSRVEIPTVVFAKGRLVGEDNDREEERHITVYLDMVQCPRCSRCMSNYYEGTLQVRAMNRFLNDKERIELDDFVRDEAGKRLNKDRMAFISKYIPQKEGLDYQMGSMGAIRNIASAIKAKYGGKSIETAKLVGVDKDTGKDMYRITVAVRIPEFKLGDILEHKEKIYVVSSLNESRVYMEPVELGDKIALVWNEIDKSAKLIKKGEDCETATVISITPDTITAMDDSNYEIYEYNNTIENVKEGNKIRIFKNEEINRILEIIELEHHHHHH”, which “soluble on expression in E. coli” value is on record?
A: soluble
